Results published in PMC3467058 (Nucleic Acids Research, 2012).

Target: T1, Aeropyrum pernix aEF1α (residues 7-437), C-terminally His-tagged, wild type (Aeropyrum pernix, UniProt Q9YAV0 7-437)
T1 sequence: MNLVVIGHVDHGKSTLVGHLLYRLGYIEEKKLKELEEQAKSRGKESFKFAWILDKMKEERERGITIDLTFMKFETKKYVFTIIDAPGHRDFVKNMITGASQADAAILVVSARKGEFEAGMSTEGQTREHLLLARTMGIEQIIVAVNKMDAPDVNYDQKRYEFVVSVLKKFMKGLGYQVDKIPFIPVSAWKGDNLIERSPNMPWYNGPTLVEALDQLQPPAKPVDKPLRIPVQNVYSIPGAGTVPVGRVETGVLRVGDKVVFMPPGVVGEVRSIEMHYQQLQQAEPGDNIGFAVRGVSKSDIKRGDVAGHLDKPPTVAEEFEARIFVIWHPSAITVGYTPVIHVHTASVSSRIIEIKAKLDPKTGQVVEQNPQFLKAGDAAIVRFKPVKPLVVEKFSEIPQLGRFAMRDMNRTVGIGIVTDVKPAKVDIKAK
Assay: pull-down

B1: archaeal RF1 (aRF1), archaeal class I release factor, Aeropyrum pernix (natural protein)
chain: MSQGRLEERLTISKRELARLLKELKKWSAPATVLLSLYIPPGRPLSDVMTLLRQEYSITDNIKLKRTRQAVKRALSAAMDRLQMLTSTPPNGLVLFCGEDMSTGKFECFMFSPPEPIRVFYYRTDKRFITDFLEDMVEDNNAIGIIIVERDQATIGLLKGARLEVLKELEGFVPGKHKMGGQSQRRYERIIEQMVDEFFKKVGEEASNLLVPLAEKGVLKGVIVAGPGLAKQEFVEGNYLDYRLKKILAPELVDVAYQGLQGLKEAVMKAEKVVEAQMYRDAVNAMEEFKLHLAKGTGMIVYGEKDVEAALEMGAVKTLLIHESREDLEEWVEKAKSSGAQVIVVPESLAEAEWFLKTFGGLAGILRFRISTV
binding result: binds
